Earlier results in patent US20220184236A1, “NANOPARTICLE, CONTRAST AGENT FOR MAGNETIC RESONANCE IMAGING COMPRISING SAME AND ZWITTERIONIC LIGAND COMPOUND” (ASTELLAS PHARMA INC., priority 2018, published 2022).

Conditions: authentic sample, stated size

B1: ovalbumin (protein, UniProt P01012 2-386, looked up)
Ovalbumin: GSIGAASMEFCFDVFKELKVHHANENIFYCPIAIMSALAMVYLGAKDSTRTQINKVVRFDKLPGFGDSIEAQCGTSVNVHSSLRDILNQITKPNDVYSFSLASRLYAEERYPILPEYLQCVKELYRGGLEPINFQTAADQARELINSWVESQTNGIIRNVLQPSSVDSQTAMVLVNAIVFKGLWEKAFKDEDTQAMPFRVTEQESKPVQMMYQIGLFRVASMASEKMKILELPFASGTMSMLVLLPDEVSGLEQLESIINFEKLTEWTSSNVMEERKIKVYLPRMKMEEKYNLTSVLMAMGITDVFSSSANLSGISSAESLKISQAVHAAHAEINEAGREVVGSAEAGVDAASVSEEFRADHPFLFCIKHIATNAVLFFGRCVSP
notes: authentic sample for SEC, particle size 6.1 nm
For B1, the particle size is given as 6.1 nm.
